# Test: label from the status in PepcDB records
row,Sequence,protein production
1,MKSKTIRRWSFIHTWTSLICTVFLLMLALTGLPLIFHHEIDHLLGDSPELREMPADTPHLDLQQLVKAAEAHRPGEVMQYFGWDEDEPNGVMTIMARTAGTEPNASHTFMLDARTGEAVAMPSANGGLMMVMLRLHVDMFAGLPGKLLLAFMGILFVLAIISGTVLYLPFMRRLKFATVRQDKSSRLRWLDLHNLIGVVTLTWALVVGVTGVISACADLIIAAWRNDSLSAMVAPYRDAPPLTSLAPASRLLDIAREAAPGMQPDFIAFPGTRFSSEHHYAVFLKGSSHLTSHLLTPVLIDASSLQVTAVAGRPWYMDAMGMSQPLHFGDYGGMPMKVLWAAMDMLTIIVLGSGLYLWLARRRAGKSMPQVRP,failed
2,MKSLGRHLVAEFYECDREVLDNVQLIEQEMKQAAYESGATIVTSTFHRFLPYGVSGVVVISESHLTIHTWPEYGYAAIDLFTCGEDVDPWKAFEHLKKALKAKRVHVVEHERGRYDEIGIPEDSPHKAAV,not failed
3,MKSLIIGANGGVGQHLVRKLKARDVDFTAGVRKEEQVEALKADGIDATYIDVAKQSIDELIELFKSYDQILFSVGSGGSTGDDQTIIVDLDGAVKAIKASEQIDHQHFIMVSTYDSRREAFDASGDLKPYTIAKHYADDYLRHANLKYTIVHPGALTNEHETQQFNMSAQFENVQNPSITREDVAEVLVSVLTDEVLQGHEFQIINGDLSLLDATTKYLEE,failed
4,MKSLQIYLFLFLSVFALGACIQNDIPYPYIKGEITAFEVEGQTGDAEINKNSRTIVVEVGDEVDIEELRITRFVVNEEATYSIDEQYCVSPNKFPSAGFSALADLPAGADTRVDFSKTVPVLLRTYQDYQWMITVKQTIERVVEVENQALPAIIDDKNHTVLVYVSQKQDLSAVKITKMILGGSKATITPDPSTVTNFRRPQEFVVNRFDKEELWTVDVVRTTSTGTTGSADVWATRATLNGGMKQGTTPRVEYRKKSEDTWTVVPETDVKLESGTTFSTTLTGLQDGTDYVWRVVVEEVPSTESGFTTEKIQEIPNLNFDTWSQNPTGTFKKSWYPNADGSNSFWATGNDGVTSSLAGSRDSSTRPEEKSVVNGKAAYMVTLGSVPLVGVAAGNLFIGDYKTNAQSPLEHHHHHH,failed
5,MKSQISWKVGGQQGEGIESTGEIFATAMNRKGYFLYGYRHFSSRIKGGHTNNKIRVSKSPVHAISDDLDILIAFDQETIELNHHEMREDSIIIADSKAKPQKPENCVAQLIELPFTSTAKELGTALMKNMVAIGATSALMDLNTSTFETLIDNMFSKKGNKVVDMNIQALNMGYDLMKQQVTNVNGDFTLENGSGHPHLYMIGNDAIGLGAIAAGSRFMSAYPITPASEIMEYMIANLPKVDGTVVQTEDEIAAATMAIGANYAGVRGFTASAGPGLSLMMESIGLSGMTETPLVIINTQRGGPSTGLPTKQEQSDLMQMIYGTHGDIPKIVVAPTDAEDAFYLTMEAFNLAEEYQCPVILLSDLQLSLGKQTVKTLDYNKIDIRRGEIIQSDIERAEDDKAYFKRYALTASGVSPRPIPGVKGGIHHVTGVEHNEEGKPSEAPMNRQNQMEKRMRKTESLVINNPVLLNEHEDEADILYIGFISTKGAIGEGAERLERHGVKVNTMHIRQLHPFPKDIVQQAINKASKVIVAEHNYQGQLSSILKMNTQVNDKLVNQTKYDGKPFLPYEIEEKGLEIAKELKELV,failed
6,MKSRREQSIEEAIVANYLKMMIDNVNVWPRHFLRSEDVYCKNPWTLFVTRDPIILHFGRYFFVNRSVNSGLTDGCEYGCWRIIGRDRVIKSVTTGKILGLKKVYKFCETDRKPKSVFKFLEKEKRRVRDRRIWAMEEYRFASTWKQDYVICKIRRLYPQPFDYMLAQHIRGYYK,failed
7,MKSTAEYLEDPEQAADRALSLLQDLGGLSAAAAWGRSGVMWRRLAGFGDLAGLPDGAALAAGERPPAGGAMAMRAGDGALGWLAWQGKPPGQMETVAELLAGHLQCEALRAEQAATRVANETMLEISLLAGECPTLDRLLPRLHRLMQRLMDADNFYIALCGDDRSTLSFPFYADRREASPPDPERAFPIAGPDVSLTAWLIRGGAPMVLTGERIEALCRQEALARPANLPAFWMGAPLRNAADELIGAAVLQRYDDQPPLTSAEQLLFMFAARHVGFALDRVLYHRRLERQVALRTSELEGANARLRAEVASRKRAEKFQDVLFRIAELSNTSLSLEAFLSGLHRLLLEMVAARNCVVALYDMGSDLISFPYCADEYAPALKPRKPGKGLIEQVLHSGRPLLLDPYGSLQGMAAAEGATPPKSWLGVPLYCDHELLGVLAVQSYDGDVVYGYRDQEVLEFVANHIGTALARVRALESLQHAYADLEQRVRERTSELDAVNAQLEFDSLHDPLTKLPNRNYFSKALRRAWDAYLDGGDRFAVVFIDLDRFKLVNDTLGHLAGDHLLFEAGARIRSCLRHYDFLARLGGDEFAVLMFGMDAVDECEVIARRIVSEFERPVVLAGREVFSTASVGVVLADSEHYHKADDLLRDADHAMYCTKQQGRQGYTLFSHQLRIDQADQLALETELRRALEEEGQLVPYYQPFIAAATGALAGFETLVRWQHPQRGLVSPGVFLPVAEESGLITRLDRYMINAACAQLQAWRAEGRVGEGIALHINLSSANFRDPDLVGWIGERIAHYRLPPAMLHLEITESALIDQPEAAATAMQALHGLGVRLALDDFGTGYSALSYLHRYRFDVLKIDQSFVFDLDRKQESVAIVRAILALARALDLEVVAEGVETASQSAMLKEMGCGMLQGFHFAAPAPAWALDWDKLARFAEGPGRVA,failed
8,MKSTLIVIGNIILVILILFIYTMLWYYIGAKGKGIIFGVNLRKKEGLKAVAYWGIFWFLAFSFILSVASRSTISINNKITGILTYLGAISLALFCYLIIIFPITDLIRFILNKLGFSGSLREYMSIIYGRGISIFIAVIIIILFGFWHAIHQTTTNYNISINKKAGKLKQLNVVMVSDVHMGIMIRERGIDKLVTSINKLKPDVVFFCGDMVDESTPTSLEKYYSSAFKEIISKYGVYAITGNHEYATQNSEVAMNYMKKADIKVLEDKAVKVDNSFYVIGRNDAAGGKVKPLNEIMKNADKRLPIIALNHRPVALEEAEKNGVDLQLSGHTHEGQIFPFNFTTKLVFEDDYGYLKKKDFNLIVTSGYGTWGPPIRIGTKGEIVNIKIDFMN,failed
9,MKTAKRRAFAFATFAIAGLAACENTSSPSLPKDQVMAPGVDLRAAAKQDSSEAVEAGHRMIAAGEYELALRAFNRAALSRGALDAEILSGLGTANLGLGRLGQAEELLRRAVRDDAAQPVDYNNLGVLLMEQGNTAEALQYFRRAFALSNGENIAIRDNLRLALAKTENSATLEAEKSSEYKLVRRGNSDFVIRPTP,failed
10,MKTDFSLTQLADPDIAEADKILRACVHCGFCTATCPTYVLLGDELDSPRGRIYLIKEMLESDKPPTADVVKHIDRCLSCLACMTTCPSGVNYMHLVDQARVRIEKQYQRPFWDRVVREALSWMMPHPGMFRLGMWAARIVRPVAALLPGSHNLTHPTLLSRIKAMLALAPKHLPEPGPDSGTTFPAVGPKRGRVALLHGCAQQVLAPRINRAAINLLTRHGIEVVLAADEACCGALIHHLGRDTRTLEYARTNIKAWLAEIERGGLDAILVTTSGCGTVIKDYGYMLREDPEYAAAAAKVSALAKDISEYVSGLELSLPRPHDDVVVAYHSACSLQHGQKITQIPKELLSKTGFVVKDIPESHLCCGSAGTYNILQPDIATRLRDRKVANIASVKPDMIAAGNIGCMVQIASGTEVPVVHTIELLDWATGGPRPAPH,failed
11,MKTGKELKPGTVIRIDNDPWLVQKAEFTKSGRNSAIMKTKLKNLLTGYKTETVYGADDKLDDVILDRKEATLSFISGDTYTFMDTTDYTMYELNAEDIEAVLPFIEEGMTDVCEAVFFEDRLVSVDLPTTIVRQVDYTEGSARGDTSGKVMKPAKLKNGTELSVADFIEIGDMIEIDTREGGSYKGRAKV,failed
12,MKTGNLNPAPQQVTAPQNKARMDWPDIAKGISILGVVLLHVSLAIPGGQDTMMSHLNALLDPLRMPLFFMVSGFFAVKVLNQSFGELFRGRLWFYLVPYLLWTPVNLYLHRLEGTVFTGRAPGTWEWYSGSMLSATNMYWFLYFLVIFNLFLWATRKLPAWAIVALVASLWLLMPAYSEIEILRKSIIYLPTFLIGAYFRPLISRFAEAATRPKAIVFAAVLYVSGLALGVISNGLRDSENHGASVLWLMNLRDTFAHALGGNLTGFDMDHLPGMIIRIVSLPAGIVLCVWLGRIKPVGEFLKLIGRHTLPIYIGHATGLSLIFGFGLRWNFMEIDNFSDSLWHHTNTWMVIAFACAMLGGYLTYLISRVPVLGWTLVPPKLPEPDKTPAKAQADSHVKAQSAKPMNASTSSKTYGI,failed
13,MKTIEIFDPAMCCPTGLCGTNINPELMRIAVVIETLKRQGVVVTRHNLRDEPQVYVSNKTVNQYLQKNGAEALPITLVDGEIAVSKDYPTTKQMSEWTGINLD,not failed
14,MKTIHIYTNGRFEEKQSGIVREFPLVLHVNGREIATLISSPHDLRFLVAGFLRNQGFVERAEDFHMLAVCDDFGIANARIRGELPERLKPVLTSGCGTGVTFTLETPKIPPPLALPAITTDAVFRLMEELARRADNYRSHGGIHSAAVGDGEGNLLLFAEDIGRHNTLDRIAGEALFKGIDLAGTILVTSGRVSTEMAAKCARLGIALIASRTSATDMAVKMCDEAGIPLIGYVRGGKFTVYAHHERLAMAPPVGAIHELPLPASAQGRRIPGITGVILAGGQSRRMGSNKALLPYKGGRFIEAIHRQLAEIFDEVLLVTNNPEQYDFLPCRKVADIHPGMGALAGIHAGLHHAANPAAFMVACDMPYLNSDLIRHLATLADPGGVLIPESPAGLEPLHAVYGKGCLAAIETTLLSGERRIVSFFGRTNVNRVNAEQVALFDPDYATFSNINTPVDYYRLRDGERDELDAALGADRIAGLEHHHHHH,failed
15,MKTIIRQPQLYRFLKYCNESNLDKTVLDCGAGGDLPPLSIFVEDGYKTYGIEISDLQLKKAENFSRENNFKLNISKGDIRKLPFKDESMSFVYSYGTIFHMRKNDVKEAIDEIKRVLKPGGLACINFLTTKDERYNKGEKIGEGEFLQLERGEKVIHSYVSLEEADKYFKDMKVLFKEDRVVERINDGLKIKQGYVDYIAEKFSKSIL,not failed
16,MKTKGWGALAVLPLALALAGNVAAEEVKGKVKTVSVKAGQISLTVESKGVMLFRVTDGTTFANAASIREIHADDLLQVDYRVDGFDNVAKAVAKVVAKLPEGVTAMDTRELEALVAKGTEEGGYLLIDSRPAGKYNEAHIPTAVSIPFAELEKNPALLTASKDRLLVFYCGGVTUVLSPKSAGLAKKSGYEKVRVYLDGEPEWKKAELPLESSLAFVEKGNIVLIDLRSPEKVAAGHIPGAVGIPAADLAAAQAKFPAYRGAHLVFYSDSAEDLSQALELARDWNYKNATIFPGGIGAWQKAGKHLKTGAAAATVTYVKKLAPGEVGTEDFQAALKDGRTVVIDARAPGEFEKGHFKGAVNIPAEEAAKRLAEIPADRPVLVHCSTGTRAEMVYDLVKDKGYNLKYLKAGVEFAADGSYTISE,failed
17,MKTLCTHSLPKEKMPYLLRSGEGERYLFGRQVATVMANGRSTGDLFEIVLLSGGKGDAFPLHVHKDTHEGILVLDGKLELTLDGERYLLISGDYANIPAGTPHSYRMQSHRTRLVSYTMKGNVAHLYSVIGNPYDHAEHPPYASEEVSNERFAEAAAVADIVFLDEAKPACSAKLAELTELPDGAVPYVLESGEGDRLLTGDQLHRIVAAQKNTDGQFIVVSSEGPKGDRIVDHYHEYHTETFYCLEGQMTMWTDGQEIQLNPGDFLHVPANTVHSYRLDSHYTKMVGVLVPGLFEPFFRTLGDPYEGHIFPCEPQALRFDRILQNIEALDLKVMKP,not failed
18,MKTLFSIYLFLSLNPLFLEANEITWSKFLENFKNKNDDDKPKPLTIDKNNEKQQILDKNQQILKRALEKSLKFFFIFGYNYSQATFSTSNQTLTFVANSIGFNTATGLEHFLRNHPKVGFRIFSVYNYFHSVSLSQPQTLMVQNYGGALDFSWIFVDKNIYRFRSYLGIALEQGVLLVDTIKPGAITTIIPRTKKTFFQAPLRFGFIVDFIGYLSLQLGIEMPLVRNVFYTYNNHQERFKPRFNANLSLIVSF,failed
